Test results: PMC3608519 (Journal of immunology (Baltimore, Md. : 1950), 2013)

Biological target: RSV fusion (F) protein ectodomain (Human respiratory syncytial virus; …, UniProt P03420)
Test: SPR

RSV fusion (F) protein ectodomain, sequence (P03420 26-524): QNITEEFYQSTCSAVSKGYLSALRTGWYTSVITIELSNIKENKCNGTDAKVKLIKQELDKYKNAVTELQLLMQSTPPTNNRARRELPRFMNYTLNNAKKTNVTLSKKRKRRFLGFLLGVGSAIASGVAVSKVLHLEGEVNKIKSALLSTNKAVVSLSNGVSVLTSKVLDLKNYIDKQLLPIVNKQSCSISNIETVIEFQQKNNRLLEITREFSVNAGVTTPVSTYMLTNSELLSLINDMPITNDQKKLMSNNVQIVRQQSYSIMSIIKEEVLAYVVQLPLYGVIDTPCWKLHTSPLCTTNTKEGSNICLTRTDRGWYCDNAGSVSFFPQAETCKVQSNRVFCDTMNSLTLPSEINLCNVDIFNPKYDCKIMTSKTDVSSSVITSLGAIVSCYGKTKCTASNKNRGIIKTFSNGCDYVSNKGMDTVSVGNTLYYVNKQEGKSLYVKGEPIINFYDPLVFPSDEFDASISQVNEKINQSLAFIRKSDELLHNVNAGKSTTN

B1: Fab19 (fully matured, wild-type) (Fab, V domains shown)
VH: VQLLEVESGGGLRPGGSLRLSCAASGTTLSGYTMHWVRQAPGKGLEWVSSITGGSNFINYSDSVKGRFTISRDNAKNSLYLQMNSLTAEDTAVYYCATAPIAPPYFDHWGQGTLVTVSS
VL: ELTQSPSSLSASVGDRVTITCRATQSVSNFLNWYQQKPGEAPTLLIYDASTSQSGVPSRFSGSGSGMDFSLTISSLQPEDLAMYYCQASINTPLFGGGTRIDMR
koff: 0.0057 s⁻¹
